Measured values reported in US12533321B2, “Polypeptide formulations for oral delivery” (Bhami's Research Laboratory, Pvt. Ltd., priority 2022, dated 2026).

How the values were obtained:
Type in all cases: in vivo, Minipigs
[1] = Pharmacokinetics of adalimumab in albumin crystal sugar truffle shell vs IV, plasma adalimumab by ELISA; design: Mean adalimumab levels: unit not given here; settings: 12 mg; for Mean adalimumab levels: plasma, Pigs
Source text: The microparticle of albumin crystals containing adalimumab was then lyophilized after washing with cold isopropanol.
(§1) Pigs in the oral treatment group was either fasted overnight or fed prior to the test sample administration. […] The time of dosage of each animal was noted. […] An antibody, anti-adalimumab was pre-coated onto a 96-well plate. […] The intensity of the yellow color is proportional to the adalimumab amount bound on the plate.

[2] = Pharmacokinetics of adalimumab in albumin crystal capsule (Vitamin E) vs IV, plasma adalimumab by ELISA; design: Mean adalimumab levels: unit not given here; settings: 12 mg; for Mean adalimumab levels: plasma, Pigs
Source text: The microparticle of albumin crystals containing adalimumab was then lyophilized after washing with cold isopropanol. […] The capsule was then closed.
as §1

[3] = Pharmacokinetics of hGH in albumin crystal capsule (Vitamin E) vs IV, plasma hGH by ELISA
Source text: The microparticle of albumin crystals containing hGH was then lyophilized after washing with cold isopropanol. […] The capsule was then closed.
as §1, with “anti-hGH” for “anti-adalimumab”, “hGH” for “adalimumab”

[4] = Pharmacokinetics of hGH in albumin crystal sugar truffle shell vs IV, plasma hGH by ELISA; settings: 0.33 mg; for Mean hGH levels: plasma, Pigs
Source text: The microparticle of albumin crystals containing hGH was then lyophilized after washing with cold isopropanol.
as §1, with “anti-hGH” for “anti-adalimumab”, “hGH” for “adalimumab”

## adalimumab
[1]; Minipigs
  AUC 0-inf_obs: 2387.704908 µg·h/mL
  AUC 0-inf_pred: 2433.025437 µg·h/mL
  AUC t-inf_obs: 1464.822434 µg·h/mL
  AUC t-inf_pred: 1510.142963 µg·h/mL
  AUC(0-t): 922.8824739 µg·h/mL
  AUMC 0-inf_obs: 476541890.8 ng/ml * h^2
  AUMC 0-inf_pred: 490022798.4 ng/ml * h^2
  AUMC 0-t: 40820243.03 ng/ml * h^2
  AUMC 0-t/0-inf_obs: 0.08566
  AUMC 0-t/0-inf_pred: 0.0833
  AUMC t-inf_obs: 435721647.8 ng/ml * h^2
  AUMC t-inf_pred: 449202555.4 ng/ml * h^2
  C0: 8311 ng/mL
  Cl_obs: 5.026E−06 (mg)/(ng/ml)/h
  Cl_pred: 4.932E−06 (mg)/(ng/ml)/h
  Clast_obs: 7271 ng/mL
  Clast_pred: 7496 ng/mL
  Cmax: 12110.42857 ng/mL
  Lambda_z: 0.00496 h⁻¹
  MRT 0-inf_obs: 199.6 h
  MRT 0-inf_pred: 201.4 h
  MRT 0-t: 44.23 h
  Tlast: 96 h
  Tmax: 2 h
  Vss_obs: 0.001003 (mg)/(ng/ml)
  Vss_pred: 0.0009934 (mg)/(ng/ml)
  Vz_obs: 0.001012 (mg)/(ng/ml)
  Vz_pred: 0.0009936 (mg)/(ng/ml)
  t½: 139.6393 h
[1]; 0 hrs
  Mean adalimumab levels: 8311.04
[1]; 0.08 hrs
  Mean adalimumab levels: 11638.36
[1]; 0.5 hrs
  Mean adalimumab levels: 11171.29
[1]; 1 hrs
  Mean adalimumab levels: 11637.57
[1]; 2 hrs
  Mean adalimumab levels: 11541.29
[1]; 4 hrs
  Mean adalimumab levels: 12110.43
[1]; 8 hrs
  Mean adalimumab levels: 11914.71
[1]; 24 hrs
  Mean adalimumab levels: 11552.57
[1]; 48 hrs
  Mean adalimumab levels: 10162.00
[1]; 72 hrs
  Mean adalimumab levels: 9803.00
[1]; 96 hrs
  Mean adalimumab levels: 8772.00
[2]; Minipigs
  AUC 0-inf_obs: 2387.704908 µg·h/mL
  AUC 0-inf_pred: 2433.025437 µg·h/mL
  AUC t-inf_obs: 1464.822434 µg·h/mL
  AUC t-inf_pred: 1510.142963 µg·h/mL
  AUC(0-t): 922.8824739 µg·h/mL
  AUMC 0-inf_obs: 476541890.8 ng/ml * h^2
  AUMC 0-inf_pred: 490022798.4 ng/ml * h^2
  AUMC 0-t: 40820243.03 ng/ml * h^2
  AUMC 0-t/0-inf_obs: 0.08566
  AUMC 0-t/0-inf_pred: 0.0833
  AUMC t-inf_obs: 435721647.8 ng/ml * h^2
  AUMC t-inf_pred: 449202555.4 ng/ml * h^2
  C0: 8311 ng/mL
  Cl_obs: 5.026E−06 (mg)/(ng/ml)/h
  Cl_pred: 4.932E−06 (mg)/(ng/ml)/h
  Clast_obs: 7271 ng/mL
  Clast_pred: 7496 ng/mL
  Cmax: 12110.42857 ng/mL
  Lambda_z: 0.00496 h⁻¹
  MRT 0-inf_obs: 199.6 h
  MRT 0-inf_pred: 201.4 h
  MRT 0-t: 44.23 h
  Tlast: 96 h
  Tmax: 2 h
  Vss_obs: 0.001003 (mg)/(ng/ml)
  Vss_pred: 0.0009934 (mg)/(ng/ml)
  Vz_obs: 0.001012 (mg)/(ng/ml)
  Vz_pred: 0.0009936 (mg)/(ng/ml)
  t½: 139.6393 h
[2]; 0 hrs
  Mean adalimumab levels: 8311.04
[2]; 0.08 hrs
  Mean adalimumab levels: 11638.36
[2]; 0.5 hrs
  Mean adalimumab levels: 11171.29
[2]; 1 hrs
  Mean adalimumab levels: 11637.57
[2]; 2 hrs
  Mean adalimumab levels: 11541.29
[2]; 4 hrs
  Mean adalimumab levels: 12110.43
[2]; 8 hrs
  Mean adalimumab levels: 11914.71
[2]; 24 hrs
  Mean adalimumab levels: 11552.57
[2]; 48 hrs
  Mean adalimumab levels: 10162.00
[2]; 72 hrs
  Mean adalimumab levels: 9803.00
[2]; 96 hrs
  Mean adalimumab levels: 8772.00

## hGH: human growth hormone (human recombinant), given IV
[3]; 0 h
  Mean hGH levels: 18144.54 ± 1619.64 pg/mL
[3]; 0.33 mg, Minipigs
  AUC 0-inf_obs: 0.160057765 µg·h/mL
  AUC 0-inf_pred: 0.158135382 µg·h/mL
  AUC t-inf_obs: 0.005998634 µg·h/mL
  AUC t-inf_pred: 0.004076251 µg·h/mL
  AUC(0-t): 0.154059131 µg·h/mL
  AUMC 0-inf_obs: 1696005.242 pg/ml * h^2
  AUMC 0-inf_pred: 1578826.575 pg/ml * h^2
  AUMC 0-t: 1330359.118 pg/ml * h^2
  AUMC 0-t/0-inf_obs: 0.784
  AUMC 0-t/0-inf_pred: 0.843
  AUMC t-inf_obs: 365646.123 pg/ml * h^2
  AUMC t-inf_pred: 248467.457 pg/ml * h^2
  C0: 18.14454 ng/mL
  Cl_obs: 0.000 (mg)/(pg/ml)/h
  Clast_obs: 0.46304 ng/mL
  Clast_pred: 0.31465 ng/mL
  Cmax: 22.5132 ng/mL
  Lambda_z: 0.077 h⁻¹
  MRT 0-inf_obs: 10.596 h
  MRT 0-inf_pred: 9.984 h
  MRT 0-t: 8.635 h
  Tlast: 48.000 h
  Tmax: 0.500 h
  Vss_obs: 0.000 (mg)/(pg/ml)
  Vz_obs: 0.000 (mg)/(pg/ml)
  t½: 8.980 h
[3]; 0.08 h
  Mean hGH levels: 20014.87 ± 620.32 pg/mL
[3]; 0.5 h
  Mean hGH levels: 22513.2 ± 562.85 pg/mL
[3]; 1 h
  Mean hGH levels: 22130.7 ± 728.54 pg/mL
[3]; 4 h
  Mean hGH levels: 14910.13 ± 2908.87 pg/mL
[3]; 8 h
  Mean hGH levels: 1159.19 ± 226.15 pg/mL
[3]; 24 h
  Mean hGH levels: 1495.55 ± 291.77 pg/mL
[3]; 48 h
  Mean hGH levels: 463.04 ± 90.34 pg/mL
[4]; Minipigs
  AUC 0-inf_obs: 0.160057765 µg·h/mL
  AUC 0-inf_pred: 0.158135382 µg·h/mL
  AUC t-inf_obs: 0.005998634 µg·h/mL
  AUC t-inf_pred: 0.004076251 µg·h/mL
  AUC(0-t): 0.154059131 µg·h/mL
  AUMC 0-inf_obs: 1696005.242 pg/ml * h^2
  AUMC 0-inf_pred: 1578826.575 pg/ml * h^2
  AUMC 0-t: 1330359.118 pg/ml * h^2
  AUMC 0-t/0-inf_obs: 0.784
  AUMC 0-t/0-inf_pred: 0.843
  AUMC t-inf_obs: 365646.123 pg/ml * h^2
  AUMC t-inf_pred: 248467.457 pg/ml * h^2
  C0: 18.14454 ng/mL
  Cl_obs: 0.000 (mg)/(pg/ml)/h
  Clast_obs: 0.46304 ng/mL
  Clast_pred: 0.31465 ng/mL
  Cmax: 22.5132 ng/mL
  Lambda_z: 0.077 h⁻¹
  MRT 0-inf_obs: 10.596 h
  MRT 0-inf_pred: 9.984 h
  MRT 0-t: 8.635 h
  Tlast: 48.000 h
  Tmax: 0.500 h
  Vss_obs: 0.000 (mg)/(pg/ml)
  Vz_obs: 0.000 (mg)/(pg/ml)
  t½: 8.980 h
[4]; 0 hrs
  Mean hGH levels: 18144.54 ± 1619.64 pg/mL
[4]; 0.08 hrs
  Mean hGH levels: 20014.87 ± 620.32 pg/mL
[4]; 0.5 hrs
  Mean hGH levels: 22513.2 ± 562.85 pg/mL
[4]; 1 hrs
  Mean hGH levels: 22130.7 ± 728.54 pg/mL
[4]; 4 hrs
  Mean hGH levels: 14910.13 ± 2908.87 pg/mL
[4]; 8 hrs
  Mean hGH levels: 1159.19 ± 226.15 pg/mL
[4]; 24 hrs
  Mean hGH levels: 1495.55 ± 291.77 pg/mL
[4]; 48 hrs
  Mean hGH levels: 463.04 ± 90.34 pg/mL
